From publication PMC6416899

Target: PtoMYB221 fused to Cub (split-ubiquitin bait) (Populus tomentosa)

- decrease in LUC activity by 2.56 μg PtoMYB221 effector plasmid against the control without PtoMYB221, with 600 to 1200 ng PtoUBC34 (35.16% with 1200 ng; 72.66% when no exogenous PtoUBC34 was added): 54.8%
Substance: full-length PtoUBC34 fused to Nub (split-ubiquitin prey) (from UniProt A0A482P071 1-235) (enzyme)
